Test results published in US20170079251.

Experiments:
Test in all cases: cell_activity
[1] = system: btPRLR 9.5 TALEN right (synthetic); details: pair value, bovine fibroblasts
[2] = system: btPRLR 9.6 TALEN right (synthetic); details: pair inactive; one RVD printed as N, read as NN
[3] = system: btPRLR 9.7 TALEN right (synthetic); details: pair inactive; printed RVDs read the sense strand
[4] = system: btPRLR 9.8 TALEN left (synthetic); details: pair value, bovine fibroblasts; also active in zygotes (Table VI)
[5] = system: btPRLR 9.4 TALEN left (synthetic); details: pair inactive, but same left RVDs active in 9.5
[6] = system: btPRLR 9.9 TALEN right (synthetic); details: pair inactive, bovine fibroblasts
[7] = system: btPRLR 9.2 TALEN left (synthetic); details: pair inactive, bovine fibroblasts
[8] = system: btPRLR 9.14 TALEN right (synthetic); details: pair inactive, bovine fibroblasts
[9] = system: btPRLR 9.2 TALEN right (synthetic); details: pair inactive, bovine fibroblasts
[10] = system: btPRLR 9.4 TALEN right (synthetic); details: pair inactive, bovine fibroblasts
[11] = system: btPRLR 9.6 TALEN left (synthetic); details: pair inactive, bovine fibroblasts
[12] = system: btPRLR 9.10 TALEN right (synthetic); details: pair inactive, bovine fibroblasts
[13] = system: btPRLR 9.12 TALEN left (synthetic); details: pair value, bovine fibroblasts; also active in zygotes (Table VI)
[14] = system: btPRLR 9.9 TALEN left (synthetic); details: pair inactive, bovine fibroblasts
[15] = system: btPRLR 9.11 TALEN left (synthetic); details: pair inactive, bovine fibroblasts
[16] = system: btPRLR 9.11 TALEN right (synthetic); details: pair inactive, bovine fibroblasts
[17] = system: btPRLR 9.1 TALEN right (synthetic); details: pair value, bovine fibroblasts, TALEN mRNA
[18] = system: btPRLR 9.5 TALEN left (synthetic); details: pair value, bovine fibroblasts
[19] = system: btPRLR 9.13 TALEN right (synthetic); details: pair value, bovine fibroblasts
[20] = system: btPRLR 9.14 TALEN left (synthetic); details: pair inactive, bovine fibroblasts
[21] = system: btPRLR 9.1 TALEN left (synthetic); details: pair value, bovine fibroblasts, TALEN mRNA
[22] = system: btPRLR 9.12 TALEN right (synthetic); details: pair value, bovine fibroblasts; also active in zygotes (Table VI)
[23] = system: btPRLR 9.13 TALEN left (synthetic); details: pair value; printed RVDs lack one HD relative to target
[24] = system: btPRLR 9.10 TALEN left (synthetic); details: pair inactive, bovine fibroblasts
[25] = system: btPRLR 9.3 TALEN left (synthetic); details: pair inactive, bovine fibroblasts
[26] = system: btPRLR 9.8 TALEN right (synthetic); details: pair value, bovine fibroblasts; also active in zygotes (Table VI)
[27] = system: btPRLR 9.7 TALEN left (synthetic); details: pair inactive, bovine fibroblasts
[28] = system: btPRLR 9.3 TALEN right (synthetic); details: pair inactive, bovine fibroblasts

Question: With “GCTTTAAAAGCCTCAAAAACCATTGAAACTGGCAGGGAAGGAAAGGCAACCA (double strand) [9.5 right site]” as the sequence, how does the activity [1] read?
Answer: Its activity is 13.9 % Cel-I.

Question: With “GGCCGGCACCACAGCCACTTCGCTGGACCAAACAGACCAACATGCTTT (double strand) [9.6 right site]” as the sequence, how does the activity [2] read?
Answer: The activity was 0 % Cel-I.

Question: “CAGACCAACATGCTTTAAAAGCCTCAAAAACCATTGAAACTGGCAG (double strand) [9.7 right site]” was tested. Which activity [3] did it give?
Answer: The activity was 0 % Cel-I.

Question: Which activity [4] does the source give for “GTGGCCACGACCCCAAGACAAAACCCCCTTGATCTCTGCTAAACCCTTGG (double strand) [9.8 left site]” here?
Answer: Its activity is 10.1 % Cel-I.

Question: With “GCTTTAAAAGCCTCAAAAACCATTGAAACTGGCAGGGAAGGAAAGGCAACCA (double strand) [9.4 left site]” as the sequence, how does the activity [5] read?
Answer: Its activity is 0 % Cel-I.

Question: “CAGAAGGCTGCAGTTCCAAGCCTGACCAAGACACGGTGTGGCCACG (double strand) [9.9 right site]” was tested. Which activity [6] did it give?
Answer: The activity was 0 % Cel-I.

Question: With “GCTTTAAAAGCCTCAAAAACCATTGAAACTGGCAGGGAAGGAAAGGC (double strand) [9.2 left site]” as the sequence, how does the activity [7] read?
Answer: The activity was 0 % Cel-I.

Question: How did the activity [8] turn out when “CAAAAACCATTGAAACTGGCAGGGAAGGAAAGGCAACCAAGCAGAGGGAGTC (double strand) [9.14 right site]” was run?
Answer: The activity was 0 % Cel-I.

Question: Which activity [9] does the source give for “GCTTTAAAAGCCTCAAAAACCATTGAAACTGGCAGGGAAGGAAAGGC (double strand) [9.2 right site]” here?
Answer: Its activity is 0 % Cel-I.

Question: How did the activity [10] turn out when “GCTTTAAAAGCCTCAAAAACCATTGAAACTGGCAGGGAAGGAAAGGCAACCA (double strand) [9.4 right site]” was run?
Answer: Its activity is 0 % Cel-I.

Question: Which activity [11] does the source give for “GGCCGGCACCACAGCCACTTCGCTGGACCAAACAGACCAACATGCTTT (double strand) [9.6 left site]” here?
Answer: The activity was 0 % Cel-I.

Question: Which activity [12] does the source give for “GGCCACGACCCCAAGACAAAACCCCCTTGATCTCTGCTAAACCCTTGGAAT (double strand) [9.10 right site]” here?
Answer: Its activity is 0 % Cel-I.

Question: For “TCGCTGGACCAAACAGACCAACATGCTTTAAAAGCCTCAAAAACCATTG (double strand) [9.12 left site]”, which activity [13] is on record?
Answer: The activity was 15.9 % Cel-I.

Question: For “CAGAAGGCTGCAGTTCCAAGCCTGACCAAGACACGGTGTGGCCACG (double strand) [9.9 left site]”, which activity [14] is on record?
Answer: The activity was 0 % Cel-I.

Question: Which activity [15] does the source give for “CAAAAACCATTGAAACTGGCAGGGAAGGAAAGGCAACCAAGCAGAGGGAGTC (double strand) [9.11 left site]” here?
Answer: The activity was 0 % Cel-I.

Question: For “CAAAAACCATTGAAACTGGCAGGGAAGGAAAGGCAACCAAGCAGAGGGAGTC (double strand) [9.11 right site]”, which activity [16] is on record?
Answer: Its activity is 0 % Cel-I.

Question: For “GGCCGGCACCACAGCCACTTCGCTGGACCAAACAGACCAACATGCTTTA (double strand) [9.1 right site]”, which activity [17] is on record?
Answer: Its activity is 20.9 % Cel-I.

Question: Which activity [18] does the source give for “GCTTTAAAAGCCTCAAAAACCATTGAAACTGGCAGGGAAGGAAAGGCAACCA (double strand) [9.5 left site]” here?
Answer: The activity was 13.9 % Cel-I.

Question: How did the activity [19] turn out when “AAAAGCCTCAAAAACCATTGAAACTGGCAGGGAAGGAAAGGCAACCAAGCAG (double strand) [9.13 right site]” was run?
Answer: The activity was 6.8 % Cel-I.

Question: How did the activity [20] turn out when “CAAAAACCATTGAAACTGGCAGGGAAGGAAAGGCAACCAAGCAGAGGGAGTC (double strand) [9.14 left site]” was run?
Answer: Its activity is 0 % Cel-I.

Question: “GGCCGGCACCACAGCCACTTCGCTGGACCAAACAGACCAACATGCTTTA (double strand) [9.1 left site]” was tested. Which activity [21] did it give?
Answer: The activity was 20.9 % Cel-I.

Question: With “TCGCTGGACCAAACAGACCAACATGCTTTAAAAGCCTCAAAAACCATTG (double strand) [9.12 right site]” as the sequence, how does the activity [22] read?
Answer: The activity was 15.9 % Cel-I.

Question: Which activity [23] does the source give for “AAAAGCCTCAAAAACCATTGAAACTGGCAGGGAAGGAAAGGCAACCAAGCAG (double strand) [9.13 left site]” here?
Answer: The activity was 6.8 % Cel-I.

Question: Which activity [24] does the source give for “GGCCACGACCCCAAGACAAAACCCCCTTGATCTCTGCTAAACCCTTGGAAT (double strand) [9.10 left site]” here?
Answer: The activity was 0 % Cel-I.

Question: Which activity [25] does the source give for “GGCCGGCACCACAGCCACTTCGCTGGACCAAACAGACCAACATGCTTTAA (double strand) [9.3 left site]” here?
Answer: Its activity is 0 % Cel-I.

Question: Which activity [26] does the source give for “GTGGCCACGACCCCAAGACAAAACCCCCTTGATCTCTGCTAAACCCTTGG (double strand) [9.8 right site]” here?
Answer: The activity was 10.1 % Cel-I.

Question: “CAGACCAACATGCTTTAAAAGCCTCAAAAACCATTGAAACTGGCAG (double strand) [9.7 left site]” was tested. Which activity [27] did it give?
Answer: The activity was 0 % Cel-I.

Question: How did the activity [28] turn out when “GGCCGGCACCACAGCCACTTCGCTGGACCAAACAGACCAACATGCTTTAA (double strand) [9.3 right site]” was run?
Answer: Its activity is 0 % Cel-I.
